The text below walks through data of the supplement of paper PMC10567573.

B1: ZBTB22 (parent)
chain: FSSSSQEAFAASAVGSGERRGGGP
B2: TPD52L2 (parent)
chain: EAEEEELRAELTKVEEEIVTLRQV
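Further: lentivirally expressed fusions sorted by FACS into six bins by GFP to DsRed ratio, PSI derived from sequencing read proportions per bin multiplied by bin number.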

One data set covers variants of B1. Kind of data set: protein stability index of a GFP-peptide fusion (GPS, HEK-293T) (PSI 1-6); higher = more stable. Conditions: c terminus: a fixed tail appended.
As for CSSSSQEAFAASAVGSGERRGGGP, the protein stability index was 3.94. Same read-out and setting: the figure for NSSSSQEAFAASAVGSGERRGGGP is 5.02; for VSSSSQEAFAASAVGSGERRGGGP it is 5.17; for RSSSSQEAFAASAVGSGERRGGGP it is 5.67.

For the variant GSSSSQEAFAASAVGSGERRGGGP, the protein stability index was determined as 5.5. On the same count and under the same terms, as for YSSSSQEAFAASAVGSGERRGGGP, the figure is 3.48; as for KSSSSQEAFAASAVGSGERRGGGP, 5.04; as for ISSSSQEAFAASAVGSGERRGGGP, 5.3. Same read-out and setting: as for LSSSSQEAFAASAVGSGERRGGGP, the figure is 5.29; as for ASSSSQEAFAASAVGSGERRGGGP, 4.9. Same read-out and setting: the figure for DSSSSQEAFAASAVGSGERRGGGP is 5.7. Take MSSSSQEAFAASAVGSGERRGGGP: the protein stability index stood at 5.13. The same measure, in the same setting: as for HSSSSQEAFAASAVGSGERRGGGP, the figure is 4.75; as for ESSSSQEAFAASAVGSGERRGGGP, 5.43; as for PSSSSQEAFAASAVGSGERRGGGP, 5.33.

TSSSSQEAFAASAVGSGERRGGGP: the protein stability index was 5.39. The same measure, in the same setting: the figure for WSSSSQEAFAASAVGSGERRGGGP is 5.09; for QSSSSQEAFAASAVGSGERRGGGP it is 5.01; for SSSSSQEAFAASAVGSGERRGGGP it is 4.85. On to FASSSQEAFAASAVGSGERRGGGP, for which the protein stability index was found to be 2.29. Still for that read-out and setting: as for FESSSQEAFAASAVGSGERRGGGP, the figure is 5.12; as for FCSSSQEAFAASAVGSGERRGGGP, 2.62. On the same count and under the same terms, as for FDSSSQEAFAASAVGSGERRGGGP, the figure is 5.17.

The variants in another data set derive from B2. The description is as above. Conditions: c terminus: a fixed tail appended.
For EAEEEELRAELTQVEEEIVTLRQV, the protein stability index worked out at 4.55. Still for that read-out and setting: as for EAEEEELRAELTEVEEEIVTLRQV, the figure is 5.82; as for EAEEEELRAELTSVEEEIVTLRQV, 4.54. On to EAEEEELRAELTTVEEEIVTLRQV, for which the protein stability index is 5.15. Still for that read-out and setting: the figure for EAEEEELRAELTKVEEEQVTLRQV is 5.41. Still for that read-out and setting: the figure for EAEEEELRAELTKVEEENVTLRQV is 4.93. Same read-out and setting: the figure for EAEEEELRAELTKVEEESVTLRQV is 5.45; for EAEEEELRAELTKVEEEAVTLRQV it is 5.93. Consider EALEEELRAELTKVEEEIVTLRQV, for which the protein stability index was found to be 2.76. With EAIEEELRAELTKVEEEIVTLRQV, the protein stability index was 2.79.

Turning to EAAEEELRAELTKVEEEIVTLRQV, the protein stability index is 3.04. Same read-out and setting: as for EAREEELRAELTKVEEEIVTLRQV, the figure is 3.04; as for EASEEELRAELTKVEEEIVTLRQV, 3.63; as for EAEEEELRAEQTKVEEEIVTLRQV, 5.67.

With NAEEEELRAELTKVEEEIVTLRQV, the protein stability index came out at 2.5. Same read-out and setting: as for CAEEEELRAELTKVEEEIVTLRQV, the figure is 2.89. For EAEEEELRAGLTKVEEEIVTLRQV, the protein stability index came out at 5.34. On the same count and under the same terms, as for EAEEEELRALLTKVEEEIVTLRQV, the figure is 2.96; as for EAEEEELRACLTKVEEEIVTLRQV, 4.84; as for EAEEEELRATLTKVEEEIVTLRQV, 3.21. On the same count and under the same terms, as for EAEEEELRAELTKVDEEIVTLRQV, the figure is 5.55; as for EAEEEELRAELTKVREEIVTLRQV, 4.72. On the same count and under the same terms, the figure for EAEEEELRAELTKVPEEIVTLRQV is 5.04; for EAEEEELRAELTKIEEEIVTLRQV it is 3.57; for EAEEEELRAELTKSEEEIVTLRQV it is 4.42. Regarding EAEEEELRAELTKLEEEIVTLRQV, the protein stability index amounted to 3.82. As for EAEEEELRAELTKCEEEIVTLRQV, the protein stability index was 3.54. The same measure, in the same setting: as for EAEEEELRAELTKDEEEIVTLRQV, the figure is 4.74; as for EAEEEELRAELTKVEEEIVTLHQV, 3.96. The same measure, in the same setting: as for EAEFEELRAELTKVEEEIVTLRQV, the figure is 2.79; as for EAETEELRAELTKVEEEIVTLRQV, 3.75. On the same count and under the same terms, as for EAECEELRAELTKVEEEIVTLRQV, the figure is 2.93; as for EAEEEELRAELTKVEEEIVTLRQI, 4.13. As for EAEEEELRAELTKVEEEIVTLRQD, the protein stability index was determined as 5.2.

As to EAEEEELRAELTKVEEEIVTLRQP, the protein stability index was determined as 4.65. Still for that read-out and setting: the figure for EAEEEELRAELEKVEEEIVTLRQV is 4.22. Same read-out and setting: the figure for EAEEEELRAELKKVEEEIVTLRQV is 3.75; for EAEEEELWAELTKVEEEIVTLRQV it is 2.59.

Take EAEEEELAAELTKVEEEIVTLRQV: the protein stability index stood at 4.23. Still for that read-out and setting: the figure for EAEEEELNAELTKVEEEIVTLRQV is 4.51; for EAEEEELQAELTKVEEEIVTLRQV it is 3.96. Turning to EAEEEELFAELTKVEEEIVTLRQV, the protein stability index came to 3.66. As to EAEEEELRAELTKVEEEIQTLRQV, the protein stability index stood at 3.04. Still for that read-out and setting: as for EAEEEELRAELTKVEEEIITLRQV, the figure is 2.96. With EAEEEEARAELTKVEEEIVTLRQV, the protein stability index was found to be 5.44. Still for that read-out and setting: the figure for EAEEEESRAELTKVEEEIVTLRQV is 5.58; for EAEEEEWRAELTKVEEEIVTLRQV it is 4.92; for EAEEEWLRAELTKVEEEIVTLRQV it is 2.62. Same read-out and setting: as for EAEEELLRAELTKVEEEIVTLRQV, the figure is 2.8. The same measure, in the same setting: the figure for EAEEEHLRAELTKVEEEIVTLRQV is 2.91. Regarding EAEEERLRAELTKVEEEIVTLRQV, the protein stability index came to 3.23. Same read-out and setting: the figure for ETEEEELRAELTKVEEEIVTLRQV is 2.8.

Consider ELEEEELRAELTKVEEEIVTLRQV, for which the protein stability index stood at 2.93. On the same count and under the same terms, as for EDEEEELRAELTKVEEEIVTLRQV, the figure is 4.7; as for EAEEEELRAELTKVEEIIVTLRQV, 3.46. Still for that read-out and setting: as for EAEEEELRAELTKVEEHIVTLRQV, the figure is 3.44. Same read-out and setting: as for EAEEEELRAELTKVEELIVTLRQV, the figure is 4.24; as for EAEEEELRAELTKVEECIVTLRQV, 4.63; as for EAEEEELRAELTKVEEVIVTLRQV, 4.05. EAEEEELRAELTKVEEGIVTLRQV: the protein stability index is 5.32. The same measure, in the same setting: the figure for EAEEEELRAELTKVEETIVTLRQV is 4.63; for EAEEEELRAELTKVEIEIVTLRQV it is 2.61; for EAEEEELRAELTKVEMEIVTLRQV it is 2.59. On the same count and under the same terms, as for EAEEEELRAELTKVEDEIVTLRQV, the figure is 4.17; as for EAEEEELRAELTKVEEEIVTLRVV, 3.11; as for EAEEEELRAELTKVEEEIVTLRCV, 3.9. Same read-out and setting: the figure for EAEEEELRRELTKVEEEIVTLRQV is 3.64.

With EAEEEELRHELTKVEEEIVTLRQV, the protein stability index was determined as 2.82. Still for that read-out and setting: the figure for EAEEEELRIELTKVEEEIVTLRQV is 2.37; for EAEEKELRAELTKVEEEIVTLRQV it is 2.75. As for EAEERELRAELTKVEEEIVTLRQV, the protein stability index is 2.89.
